Test results from patent US20020115596A1 (MERK, published 2002).
Non-standard residues stand in square brackets, D forms with d. Primed or numbered codes have the meaning given here. PEG(2)″ = polyethylene glycol containing substituent with 2 ethyleneoxy subunits; Hyp = O=C(O)[C@@H]1C[C@@H](O)CN1; Chg = N[C@H](C(=O)O)C1CCCCC1; ΔPro = O=C(O)[C@@H]1C=CCN1

B1: Ac-(4-trans-L-Hyp)ASChgQ-S(TIC)-acid (peptide)
peptide: XASXQSX
modifications: N-terminal acetyl; 4-trans-L-Hyp (trans-4-hydroxy-L-proline) at position 1 (written X); Chg (cyclohexylglycine) at position 4 (written X); TIC (1,2,3,4-tetrahydro-3-isoquinoline carboxylic acid) at position 7 (written X); C-terminal free acid
B2: Ac-(Dehydro-Pro)-ASChgQ-SL-acid (peptide)
peptide: Ac-[ΔPro]AS[Chg]QSL-OH
SMILES: CC(=O)N1CC=C[C@H]1C(=O)N[C@@H](C)C(=O)N[C@@H](CO)C(=O)N[C@H](C(=O)N[C@@H](CCC(N)=O)C(=O)N[C@@H](CO)C(=O)N[C@@H](CC(C)C)C(=O)O)C1CCCCC1
B3: Ac-(4-trans-L-Hyp)ChgQ-SSSL-acid (peptide)
peptide: Ac-[Hyp][Chg]QSSSL-OH
SMILES: CC(=O)N1C[C@H](O)C[C@H]1C(=O)N[C@H](C(=O)N[C@@H](CCC(N)=O)C(=O)N[C@@H](CO)C(=O)N[C@@H](CO)C(=O)N[C@@H](CO)C(=O)N[C@@H](CC(C)C)C(=O)O)C1CCCCC1

Target: free prostate specific antigen (PSA) (human, UniProt P07288 25-261)
Assay: cell-based or functional assay

Binder | Time to 50% Substrate Cleavage by PSA (Min); the cell gives the percent cleaved at 3 hours [% cleaved at 3 hours]
{PEG(2)″}-[Hyp]AS[Chg]QSL-OH [PEG(2)-(4-trans-L-Hyp)-ASChgQ-SL-acid] | 44
B1 | 16
B2 | 28
B3 | 0
